From US20160031944A1 (PROTAGONIST THERAPEUTICS, published 2016) come the findings set out here.

The target in test [1] is T1, rh integrin α4β7 (R&D Systems #5397-A30) (human, UniProt P13612 34-977; P26010 20-723).
T1 construct: bought; coated on a nickel coated plate at 800 ng/well; also called A4B7
The test can be described thus: α4β7-MAdCAM competition ELISA. The method, then:
A nickel coated plate (Pierce #15442) was coated with rh integrin α4β7 (R&D Systems #5397-A30) at 800 ng/well and incubated at room temperature with shaking for 1 hr. The solution was then removed by shaking and blocked with assay buffer (50 mM Tris-HCl pH7.6, 150 mM NaCl, 1 mM MnCl₂ or MgCl₂, 0.05% Tween-20 and 0.5% BSA) at 250 ul/well. The plate was then incubated at room temperature for 1 hr. Each well was washed 3 times with wash buffer (50 mM Tris-HCl pH7.6, 100 mM NaCl, 1 mM MnCl₂ or MgCl₂, 0.05% Tween-20). To each well was added 25 ul of a serial dilution (3-fold dilutions in assay buffer) of peptides starting at 20 μM. 25 ul of recombinant human MAdCAM-1 (R&D Systems #6056-MC) was then added to each well at a fixed concentration 20 nM. The final starting peptide concentration was 10 μM, and the final MAdCAM-1 concentration was 10 nM. The plates were then incubated at room temperature for 1 hr to reach binding equilibrium. The wells were then washed three times with wash buffer. 50 ul of mouse anti-human IgG1-HRP (Invitrogen #A10648) diluted in 1:2000 in assay buffer was then added to each well. The wells were incubated at room temperature for 45 min with shaking. The wells were then washed 3 times with wash buffer. 100 ul of TMB were then added to each well and closely observe during development time. The reaction was stopped with 2N H₂SO₄ and absorbance was read at 450 nm.

Test [2] deals with T2, α4β1 (R&D Systems #5668-A4) (UniProt P13612 34-977; P05556 21-728).
T2 construct: bought; printed as αβ1; detected with mouse anti-human CD49d antibody 9F10; also called αβ1; A4B1
T2 sequence (P13612 34-977 limits assumed, chain 1 of 2): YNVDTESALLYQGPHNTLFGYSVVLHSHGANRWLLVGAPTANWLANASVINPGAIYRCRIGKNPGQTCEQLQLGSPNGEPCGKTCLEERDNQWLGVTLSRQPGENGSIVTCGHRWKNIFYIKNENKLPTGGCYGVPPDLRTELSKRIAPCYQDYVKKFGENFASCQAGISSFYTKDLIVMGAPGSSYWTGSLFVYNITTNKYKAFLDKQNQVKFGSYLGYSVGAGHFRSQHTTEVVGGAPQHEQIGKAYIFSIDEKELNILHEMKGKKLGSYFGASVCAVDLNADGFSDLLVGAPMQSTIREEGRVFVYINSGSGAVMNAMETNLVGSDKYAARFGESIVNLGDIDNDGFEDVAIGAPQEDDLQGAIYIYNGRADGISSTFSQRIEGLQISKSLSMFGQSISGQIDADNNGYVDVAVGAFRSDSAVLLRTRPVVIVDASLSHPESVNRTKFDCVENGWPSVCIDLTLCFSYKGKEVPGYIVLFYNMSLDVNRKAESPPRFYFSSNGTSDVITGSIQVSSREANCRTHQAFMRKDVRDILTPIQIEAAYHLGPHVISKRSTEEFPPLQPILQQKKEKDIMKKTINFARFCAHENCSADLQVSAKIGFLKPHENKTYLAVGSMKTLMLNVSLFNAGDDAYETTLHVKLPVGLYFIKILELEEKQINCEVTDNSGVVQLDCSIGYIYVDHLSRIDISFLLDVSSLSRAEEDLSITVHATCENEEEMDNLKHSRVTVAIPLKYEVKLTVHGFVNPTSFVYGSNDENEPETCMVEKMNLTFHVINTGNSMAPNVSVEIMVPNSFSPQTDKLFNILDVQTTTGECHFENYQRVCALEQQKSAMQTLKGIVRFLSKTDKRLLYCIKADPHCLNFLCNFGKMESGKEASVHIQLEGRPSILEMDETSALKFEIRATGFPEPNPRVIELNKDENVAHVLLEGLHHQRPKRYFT
T2 sequence (P05556 21-728 limits assumed, chain 2 of 2): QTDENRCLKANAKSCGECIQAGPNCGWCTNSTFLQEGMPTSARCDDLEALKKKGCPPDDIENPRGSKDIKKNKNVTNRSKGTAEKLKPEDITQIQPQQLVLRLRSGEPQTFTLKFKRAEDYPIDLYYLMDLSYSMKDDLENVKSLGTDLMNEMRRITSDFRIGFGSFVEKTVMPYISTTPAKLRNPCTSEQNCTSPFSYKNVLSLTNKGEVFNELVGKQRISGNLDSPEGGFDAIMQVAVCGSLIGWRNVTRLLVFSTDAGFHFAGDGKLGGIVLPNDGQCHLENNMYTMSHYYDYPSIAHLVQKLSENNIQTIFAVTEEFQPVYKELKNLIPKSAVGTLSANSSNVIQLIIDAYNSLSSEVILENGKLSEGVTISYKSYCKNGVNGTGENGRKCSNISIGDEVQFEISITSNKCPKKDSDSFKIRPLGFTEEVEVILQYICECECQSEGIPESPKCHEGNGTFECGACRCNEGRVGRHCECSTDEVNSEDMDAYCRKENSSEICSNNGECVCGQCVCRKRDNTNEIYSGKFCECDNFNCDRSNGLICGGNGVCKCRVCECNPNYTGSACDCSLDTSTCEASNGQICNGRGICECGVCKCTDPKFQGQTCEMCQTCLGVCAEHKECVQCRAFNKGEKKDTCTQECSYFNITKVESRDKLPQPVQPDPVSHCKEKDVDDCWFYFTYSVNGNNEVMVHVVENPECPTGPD
Put plainly: α4β1-VCAM competition ELISA. The method, then:
The solution was removed by shaking and then blocked with 250 ul of 1% BSA in 1×PBS per well. The wells were then incubated at room temperature for 1 hr with shaking. Each well was then washed once with wash buffer (50 mM Tris-HCl pH7.6, 100 mM NaCL, 1 mM MnCl₂ or MgCl₂, 0.05% Tween-20). 25 ul of serial dilutions of peptides starting at 200 μM in assay buffer (Assay buffer: 50 mM Tris-HCl pH7.6, 100 mM NaCl, 1 mM MnCl₂ or MgCl₂, 0.05% Tween-20) was added to each well. […] The final peptide and αβ1 concentrations were 100 μM and 60 nM, respectively. The plates were then incubated at 37° C. for 2 hr. The solution was then removed by shaking and each well was washed three times with wash buffer. 50 ul of 9F10 antibody at 4 ug/ml (purified mouse anti-human CD49d, BD Bioscience Cat#555502) was then added to each well, and the plate was incubated at room temperature for 1 hr with shaking. The solution was again removed by shaking, and each well was washed three times with wash buffer. 50 ul of peroxidase-conjugated AffiniPure Goat anti-mouse IgG (Jackson immune research cat #115-035-003) diluted in 1:5000 in assay buffer was added to each well. The plate was incubated at room temperature for 30 min with shaking. Each well was then washed 3 times with wash buffer. […] The reaction was stepped with 2N H₂SO₄ and absorbance was read at 450 nm.

T1 sequence (P13612 34-977 limits assumed, chain 1 of 2): as the sequence (P13612 34-977 limits assumed, chain 1 of 2) above
T1 sequence (P26010 20-723 limits assumed, chain 2 of 2): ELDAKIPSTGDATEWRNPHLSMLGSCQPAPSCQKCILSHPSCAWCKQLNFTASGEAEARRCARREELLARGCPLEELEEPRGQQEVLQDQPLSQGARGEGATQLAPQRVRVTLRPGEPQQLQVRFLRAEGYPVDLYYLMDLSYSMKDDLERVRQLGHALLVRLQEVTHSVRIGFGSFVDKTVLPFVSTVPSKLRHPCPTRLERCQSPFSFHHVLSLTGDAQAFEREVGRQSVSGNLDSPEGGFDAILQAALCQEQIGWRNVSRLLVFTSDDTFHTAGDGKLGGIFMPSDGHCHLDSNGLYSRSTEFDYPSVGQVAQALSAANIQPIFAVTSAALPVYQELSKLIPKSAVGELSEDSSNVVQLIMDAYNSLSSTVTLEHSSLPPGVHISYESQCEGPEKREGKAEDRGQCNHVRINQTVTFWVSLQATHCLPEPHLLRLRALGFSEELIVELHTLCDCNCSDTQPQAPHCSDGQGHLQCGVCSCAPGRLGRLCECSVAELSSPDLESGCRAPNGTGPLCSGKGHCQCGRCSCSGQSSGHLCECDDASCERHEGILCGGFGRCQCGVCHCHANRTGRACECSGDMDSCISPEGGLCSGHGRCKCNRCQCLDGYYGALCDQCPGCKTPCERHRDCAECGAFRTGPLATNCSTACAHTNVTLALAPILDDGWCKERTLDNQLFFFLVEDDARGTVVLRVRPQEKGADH

For Ac-CRSDTLCGE-NH2 (also: cyclised, mode not given here, also called control peptide) [SEQ ID NO 385], the IC50 in test [1] is 97 nM; in test [2] it was 2020 nM.

What is called IC50 is the concentration that inhibits the measured activity by half.
